Laboratory results as given in US9364556B2, “Drug conjugate comprising drug linked to human c-Met antibody, and use therefor” (Korea Research Institute of Bioscience and Biotechnology, priority 2011, dated 2016).

B1: modified B7 antibody: B7 antibody with a cysteine residue added to the heavy-chain variable region (SEQ ID NO: 8); light-chain SEQ ID NO: 11 (antibody, V domains shown)
VH: MGWSYIILFLVATAADVHSQVQLQEWGAGLLKPSETLSLTCAVSGGSLSGHYWSWVRLPPGKGLEWIGEISHSGNTNYNSSLKSRASISIDTSKNEYSLNLKSVTAVDTAVYYCARFYGDYPSSYGMDVWGQGTTVTVSSC
VL: MGWSYIILFLVATAADVHSQSALTQPASVSGSPGQSITISCTGTISDIGTYDFVSWYQHKPGKAPKLLIFDVNNRPSGVSSRFSGSKSDNTASLSISGFQAEDEADYYCSSYTDNRGLVLFGGGTKLTVLRS
modifications: a heavy chain variable region with extra cysteine; a light chain variable region
B2: B7 antibody: c-Met-specific human whole IgG from B7 phage variable region; heavy-chain variable region SEQ ID NO: 7, light-chain SEQ ID NO: 11 (antibody, V domains shown)
VH: MGWSYIILFLVATAADVHSQVQLQEWGAGLLKPSETLSLTCAVSGGSLSGHYWSWVRLPPGKGLEWIGEISHSGNTNYNSSLKSRASISIDTSKNEYSLNLKSVTAVDTAVYYCARFYGDYPSSYGMDVWGQGTTVTVSS
VL: MGWSYIILFLVATAADVHSQSALTQPASVSGSPGQSITISCTGTISDIGTYDFVSWYQHKPGKAPKLLIFDVNNRPSGVSSRFSGSKSDNTASLSISGFQAEDEADYYCSSYTDNRGLVLFGGGTKLTVLRS
modifications: a heavy chain variable region; a light chain variable region

Target: T1, C-Met (Homo sapiens, UniProt P08581)
T1 construct: A549 cells, known to readily express the c-Met receptor; endogenous in cells; host or cells: A549 (endogenous); Cos-7 cells overexpressing c-Met
T1 sequence (P08581 25-1390): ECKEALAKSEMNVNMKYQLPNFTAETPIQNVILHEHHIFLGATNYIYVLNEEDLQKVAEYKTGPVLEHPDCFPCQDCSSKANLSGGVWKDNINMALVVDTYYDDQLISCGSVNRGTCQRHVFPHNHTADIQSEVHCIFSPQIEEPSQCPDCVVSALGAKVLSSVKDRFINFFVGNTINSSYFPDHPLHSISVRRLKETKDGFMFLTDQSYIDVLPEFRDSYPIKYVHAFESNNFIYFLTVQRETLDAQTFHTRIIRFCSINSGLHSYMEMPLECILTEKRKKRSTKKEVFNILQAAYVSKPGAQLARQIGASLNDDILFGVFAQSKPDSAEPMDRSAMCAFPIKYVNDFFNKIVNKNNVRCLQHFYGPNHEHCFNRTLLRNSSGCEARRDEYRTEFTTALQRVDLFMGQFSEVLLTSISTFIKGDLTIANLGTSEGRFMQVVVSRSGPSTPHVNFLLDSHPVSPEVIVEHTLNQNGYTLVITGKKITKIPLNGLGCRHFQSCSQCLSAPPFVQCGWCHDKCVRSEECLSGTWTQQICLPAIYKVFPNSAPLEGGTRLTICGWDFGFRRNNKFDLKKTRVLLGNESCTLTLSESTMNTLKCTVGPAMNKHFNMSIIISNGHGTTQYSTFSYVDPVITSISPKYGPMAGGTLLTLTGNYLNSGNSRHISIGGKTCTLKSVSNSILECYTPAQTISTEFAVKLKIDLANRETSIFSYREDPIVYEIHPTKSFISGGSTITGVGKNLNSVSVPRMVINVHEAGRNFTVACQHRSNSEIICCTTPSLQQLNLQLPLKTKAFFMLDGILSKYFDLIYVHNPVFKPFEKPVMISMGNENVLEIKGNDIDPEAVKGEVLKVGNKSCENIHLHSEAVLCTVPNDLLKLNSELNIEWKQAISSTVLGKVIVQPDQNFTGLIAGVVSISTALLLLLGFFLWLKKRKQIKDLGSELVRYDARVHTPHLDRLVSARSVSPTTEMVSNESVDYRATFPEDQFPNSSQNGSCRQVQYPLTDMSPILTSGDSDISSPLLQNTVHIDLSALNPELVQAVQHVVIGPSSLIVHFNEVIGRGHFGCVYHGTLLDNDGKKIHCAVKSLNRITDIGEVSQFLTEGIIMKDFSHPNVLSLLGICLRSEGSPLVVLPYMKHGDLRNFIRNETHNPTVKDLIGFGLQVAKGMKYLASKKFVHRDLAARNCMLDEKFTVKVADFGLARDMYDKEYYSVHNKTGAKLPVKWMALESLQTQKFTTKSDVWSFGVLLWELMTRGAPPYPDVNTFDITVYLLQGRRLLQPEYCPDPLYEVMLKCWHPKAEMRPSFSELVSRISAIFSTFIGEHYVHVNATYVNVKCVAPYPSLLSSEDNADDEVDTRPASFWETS
Test: FACS analysis of specific binding to c-Met
Conditions: A549 cells and Cos-7 cells that overexpressed c-Met, antibody 1:100, 4° C., 1 hour, FIG. 11
Protocol: Whether the human modified B7 antibody according to the present invention easily binds specifically to c-Met was examined by FACS analysis. Each of A549 cells, known to readily express the c-Met receptor, and Cos-7 cells that overexpressed c-Met, was prepared, washed twice with PBS, detached by treatment with trypsin, washed again with PBS, and then suspended in PBS (PBA buffer) containing 1% BSA protein. Then, the cells were treated with the purified modified B7 antibody of Example 2 at 1:100 at 4° C. for 1 hour, after which the cells were washed with PBA buffer and precipitated by centrifugation at 8000 rpm for 1 minute. The washing and precipitation process was repeated three times. Then, the modified B7 antibody was treated for 20 minutes with a 1:100 dilution of secondary antibody (Invitrogen, Alexa Fluor 488 goat anti-human IgG, #A11013) that detects human antibody. The cells were washed in the same manner as described above and analyzed by FACS analyzer (BD Cantoll Flow Cytometer), and the results of the analysis are shown in FIG. 11.

Molecule | specific binding to c-Met by FACS | specific binding to c-Met by FACS (listed as original B7 antibody)
B1 | did bind specifically to c-Met | –
B2 | bind specifically to c-Met | specifically recognizes c-Met
